Source: the domain aggregation screens of Martell et al. (2025)

Assay: soluble fraction after stress (log2 fold change); higher = more stays soluble; pooled small domains, quantitative proteomics
Settings: stress: pH 4
How it was run: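 Small protein domains from pooled custom libraries were exposed to pH 4, then quantified with high-throughput quantitative proteomics. The fold change in how much of each domain remains soluble is read as aggregation propensity. It is given as log2, with higher values meaning more stayed soluble.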

Sequence	soluble fraction (log2)
HMTYADTRDLLIRRGMELLTEQGIAATSIERVLQSTGIPKGSFYHYFATKHDFTLAVMDAYHHY	-0.324
HMKSSYSGNFKQNVVEYMHNNHLSATETANHFKLGGGSVVLRWERIYYEEGPQALYEERRGR	0.144
HMDRMFQPETWSKIYQWVMNDPQVPDKEDVLALIRRHFGNFEKLIKLLHYLDGGKPYAYLSEH	0.411
HMKKYLTETEAAAYLNMPVEEIKAAITKGEIEQYVKTSSGYTISVEELDKFFGQKAYDTMTSNNS	-0.43
HMSALAEELIKKNQAMILTIKPRDTIWGIANRFQSPPSEKFINQIIELNQVDPYRLRIGQDLLIPLN	0.00792
HMAFRIGGFVQEGSVVRQQDGGTVRFEVTDTAHSVPVTYKGSLPDLFKEGKGVVAQGKLMNGTFVADQVLA	-0.186
HMKPGYVIQVNGTVTKIQSGLVYVKTPAAQYTLMRKYAPADAAVGDRVSLWINEEGMVIDVHGK	-0.671
HMDLDLNIDNYNFDDLLNLFGLKMKFSEDDLKKAKRSVLMTHPDKSGLDKQYFMFFTKAYKMLSQIYYFR	-0.779
HMTSVAYVIDRINKIQNVYSELEALGLKDEFEKILSNIEDLSKKDIREIKTLLKTKGVIKNLDDLNVKL	-1.24
HMDDVGYLRKRLQQALAQLSDDLRNTYTLFQIGKQSIKQIAAETGASESLVKVRIHRAKQKLQELLADLQ	-0.054
HMGELRAPLPGVIVSIPVKEGDEVKAGQAILIIEAMKMESEISSPIDAKVAKIVVKERVLVQEGDILIILE	-0.876
HMLSDAAAMESIAYEAIRQMEPDTYYIIGAGTTTRGIMEVLGLKNTLIGVDLIRNKELVANDLGGKELLSY	-0.796
HMTSGPAWPALSAQQRSVLAPLQRDWHTIDAARKAKWLEVAARFPSMPAEERQRVQERMAEWA	-0.0144
HMKFSVEEQFKKSFPKNTYETFSETSLKGVYEVYNGKQVYYYLPVNDVLLLGSIVTKDGKNLTQESNSKK	-0.0849
HMDKEPTHLHTFRLIKEGKSSEEIAEIRNITLGTVNTHLAKLIAVGELTIEQVISKHRLDYVMEAIKNSK	-0.825
HMSTPLPTGLPRGTIIEYTVQTDETLAIIAAKFNSTVDDIMTRNKITDPNTIYAGQILKVAINLVTP	-0.267
HMEVTLGLGSMVRLLGEPYLGSTGRVVELPDQAERFASGLTAKVAVVERHDGELIRVPVTNLLLME	0.214
HMRQLISIYNNTIGADEIDQMRNILSNSGYKEGVDFAVQTADKKSVILVRRDLAGMIQEQLSGEGLPS	-0.18
HMGDPVRVDKFLHDMNVGTRSQIRKLIKEKAVFVNDVVAKSGRVKVDPVVDQVRLGEQVITYQ	0.0055
HMSATQDAAIAVRIRDILSELDGYEDVTVTVTSGIVTMRGTTLDSEKIARLNDLTGRVEGVVAIENSVTET	-2.31
HMVTLQEVKQYLRIDFEEEDPLLLSLLATAKQQVMNVGRMDEAQLSEHEDTARTAILYAVSYLYENRN	-1.63
HMESRDRVRQASAAGYRFMSTMAGHEPGFEEASRALFAGDQTAFEARITAWPVDVQTHLKKILAEAFTT	-0.939
HMGTAESIRLFLSSGLIKGVGEALAGRIVDTFGTDTFDIIENHPELLAGVKGISHRLAMSIYESFSQHIGV	-0.951
HMIAPQISSGKVNTKELNVRSGPATTFGIVKKLPLNAMVGIFEEKNGWFRIATGQWVSKTYVDL	0.187
HMAKSETAKIKATPYGWLRVRDTPSLNGAEIARVNSGDEYKVLEKETGWIKIKVSDTVEGWVSDAYIELS	0.16

Sequence	soluble fraction (log2)
HMDGQPQLLIKNGQLLVSTALKNGMSANDLMFRLRTEGITDIRYVKRAVLEQNGQLTITQVGDD	-0.0398
HMGSNATIKYAIKGDESLVQVAQKFNVTVSELRSWNNISAFENAKTGQELVINVPASKYETYFALANT	-0.0194
HMFNTWLGEIRSNTGANVRSGPDASAAIVDARPNETVVRVIGQSGNWLQIGDKQFVAQSLVAP	-0.0317
HMHGQGTYTSPDGTKYVGDWQDEKMHGQGTYTYPDGMKFVGEFKDNKPWNGTGYDKYGNVKATFSNGVGKS	0.22
HMQEDSNISFVKIHVDADSGMAHKKLSKLSLPTGFLIVVIIRGEENIIPNGETEVLPGDLLVAAAREFEN	-0.811
HMSKIVPVAYSQFLKDVKNGNVSQVEIRGNNIKGINNNGSSFSTYAPNDLSLIDKLEKSNVEIIVMPLE	-0.232
HMTRNEFLTALRGRLSALPKEEQDAALKYYEEYFDEAESEEDAARQLGSPDSIAEKILADYA	-0.00949
HMDFNDPTMEKSLVELPAMSNSTLRDLSENNIKKLEELAEMSVGELMDIASKISESDASALIMEARKPWF	-0.741
HMINYYELLKLDMNAAHEEINDAIKLESEKNTIPEDQIRTMKSIFFNTEFKKEYDQRLMNFLLT	-1.28
HMERDIATKHEVNRTVEAYSDIVKTLNLPSHKINLVEISFFNILKRSKPSPRENSILLGLAQKIKLHLEKK	-0.473
HMAEMLQDVLNMLSAKDREILVRYYYYYESVKQVAAEMQMSESAVKMRMSRARKKMQQELIDKG	-0.704
HMNPTSLTFRSNVKDGKVYVDGIFKGSSDLDFDLPKGRHSIRIEKDGYVPFAKTINLIKALVIDFNMEKA	0.123
HMSREEFLAGLEEALAGEVPASVIRENLNYYNSYISQEMAKGRTVDEIVDEIGEPRIVARTIIDSSEAAGE	-0.246
HMEVVVPDFEKIYIRDLDKFVEGHNVRYEIVDSIYNLEKDKGTVVDQDPEPGSKVKHGRVIYLTVNAML	-0.678
HMNDENIIIEEIKYFIKSNQIKEQEKLPSERNLSELFTVSRFSLRKALRHLVDTGYLYVKDKSGYYYQGD	0.00355
HMSIHPRDKADLGTALSKWKKGALDDKQLELEVARVFMRTYGKKLEGQALNKAVAAWVAALTQSKK	≥ 0.43
HMKSYQKITPATEGNYLTTYREGDDIKTYEGVKAMYTPADFDASSVREITPEEHQSYQKAKEQALQEETEQ	0.0912
HMHSLGDQVFETIKELIVNNTYQPGELLQIDKLAAEFGVSTTPVREALLRLEGLGLVDIERNKAAVVT	-0.352
HMGSLVQTAMQAVTKHIHDNAMRVGDTLPGEGHFAETLGVSRAVMREAFGALAALKLIDVGNGRKPRVGR	0.091
HMLSRNEWLVMEALWERPSTLMELVRQLGQEPPGWAKSTTATMVRRMEEKGLIRHEAGSKARVYHP	-0.325
HMDAMLGEALRLIRVYHDLKQKQAAERLEVSTSYLSEIERGLKTPTLDIIQRYATVFDMPVSSIMFFSENL	-1.19
HMGMYAEERHQAIASLARKHGRVSVAELAERFNVTSETIRRDLDSLARRGLLTRVHGGAVPVE	≥ 0.43
HMGTIEQAFKGKAPGSAHLYDRARAVLAGGVTHDTRIHAPFPIMVQRALGARKWDVDGNEYIDY	-0.259
HMFDTVTIGRKIAELRKAHNMTQFELADALGISFQAVSNWERGASMPDISKLPELAEIFGVTIDEVLGK	-1.06
HMQNSMTTTPDVVGKTGTFAEQMLKAANLNVQFAGDSSGKVVAQDVEAGTSAAYGTIITLTMDS	0.25

Sequence	soluble fraction (log2)
HMAMDYTVVHSDRRTIAIQIQRDGRVVVRAPYAATAEDIRRVVDSHRDWVEKTVRRQQEQLAAS	0.238
HMSADEVSQQLTSEQTKSKSYQALLQAYAAYQQKSFDDAALELQNVQQDVLSDSQKTIYNTISQAVNS	-0.0227
HMSRQDYLQTIYRLSVGKGYTTNKKIADFLSVSKPSVTEMIGKLQGEGLVAMDGAHIFLTEDGAEQ	0.108
HMKHYIDFIAEQLKTLTAIPSPSGYTKNATDYLMKLLQDMGYEPKLSRKGNVFVTLGGDGEPLVLAAHVD	-0.112
HMKGVENLSDIDIQKALNNARANLSKNKAKLEQAGDDEKKKASALAMIQKWETTKKAIEEEIEARKKKSLN	-0.088
HMELADLPSAQIREILAYVYRAPLEKRRDPSIHWLLIAAHKLTLPLLDRLDPADARALGERYGADYP	-0.644
HMRMQRYYLTDMSEKGREALPGVLDEMGYAGRYTMSDNSIAINSNMIVLSKAIKRAEDIAHNE	-0.148
HMSDIPEGYMSRVQLGDEWGIHLATFDKAVIAVKEKLGTVVFIDKSNNTTAGYSPEQQTIIYDWLAEN	0.29
HMLTRQRKQLLEYLSKHTDEQMTARQIADALTAESISISAVYRNLSALEEEGILKRSIRENTREVYYQYIA	-0.231
HMDDERDRLVQQAMEGLSPALREILLLAYFQRMPYNQIAESLRIPLGTVKSRLHAAVAAFAKRWQELNRS	-0.475
HMTLPQEPTVLPRPLRVGDTVHIRTLDKDAEVLALPDARGMVAVRAGIINTKVKLTDLTLVEEK	≥ 0.43
HMQQRTVEHVDTAVEALALSIGERAGVDLPYMAHLTGKTQEDLIEDLTGVIFPVPGTEPLRYVTADDYLS	-0.835
HMKQMNETQQKAFEIYLDSATFETDYKPISEEQLAAKLDALGLKGSSSSINRWKKDFNWAQALQNKVTLAM	-0.227
HMASVLTGMLGRVTGELAPKGIVMVGNETWTAVSEDDSVIRIGEPVEVRSVEGLILTVFRRID	-1.55
HMETIELSAPGGVRLDKLIADGTELSRSAAVKLIEQGNVLVNGSPAGKKDIPAAGAAVEITLPEPQ	-0.255
HMTTVSINTTGIITASTIRASSALYPPLYTTVQRDAGTFSAGAIIFNSTTSKLEFYDGTTWQSLPG	0.285
HMDDKLKKLEEVFEMQEGTLTPDMRLDELEEWDSMTRLSLIVMMEDDYGKKVKRSEVMNYTTVQDIVDSME	-0.946
HMTVVSVDDQASASSEAIRTKVAGDSAARMSVDAGGKITWGAGSASGDVTLYRSAANTLKTDDTLVAT	0.109
HMDVLIQEIGKRLRIQRLAMGLTQEELAKRAGISLSTLKLMEQQGKGSLQRLAKVAVVLDLDGDLRGLF	-1.01
HMQEPVYRPVFPGMTDADRQSAMEALKEGGFSPRLNRQTGQLEVDASGYHEAKIYLASQGIPAE	0.22
HMTTSNPMNVTSAEAAFDNGTDRLNAFISGRTTSEERSTYFPLFVRETKEDFLRAVGRFNEYIANHG	0.0839
HMVKTANVAYSEFLKLVESDNISDVSIVGRTITGHLDDGTKFSTYTPPNDPSLIDKLTRKNVIIKSAPE	0.181
HMSDKNVYGKYKNVFLSDEEFSELKQFYPNDWSDRIETLSEGIELKGYKYKNYLLAIKKWAEYEGQKAD	-0.77
HMSTESAHLGERMLNQALRAMHIEPDQITEAHWQKLIRDYGLKKKSEILTDIGLGKRQNVMVAHQLLAMG	-0.143
HMPQPEIEIAAVVPYSAGALLSRIHDDGELLAPVEYRGEGVFVHARVPADIEAAMRRGGMLSPAET	-0.164
